Test results reported in the supplement of paper PMC7877785.
± gives the uncertainty stated by the source.

Assay: self-splicing fitness, log relative to wild type (ln ratio); higher = more splicing; Tetrahymena group I intron in knt gene, E. coli kanamycin selection, DiMSum; sequences stand for … in CUCUCU…GGAGGGAAAAGUUAUCAGGCAUGCACCUGGUAGCUAGUCUUUAAACCAAUAGAUUGCAUCGGUUUAAAAGGCAAGACCGUCAAAUUGCGGGAAAGGGGUCAACAGCCGUUCAGUACCAAGUCUCAGGGGAAACUUUGAGAUGGCCUUGCAAAGGGUAUGGUAAUAAGCUGACGGACAUGGUCCUAACCACGCAGCCAAGUCCUAAGUCAACAGAUCUUCUGUUGAUAUGGAUGCAGUUCACAGACUAAAUGUCGGUCGGGGAAGAUGUAUUCUUCUCAUAAGAUAUAGUCGGACCUCUCCUUAAUGGGAGCUAGCGGAUGAAGUGAUGCAACACUGGAGCCGCUGGGAACUAAUUUGUAUGCGAAAGUAUAUUGAUUAGUUUUGGAGUACUCGUGGUCG
How it was run: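 Fitness was computed with DiMSum as the error-weighted combination of replicate fold changes, kanamycin versus none, each normalised to wild type. The library randomised all eight intron nucleotides of the P1ex region, with the intron placed in the knt kanamycin-resistance gene on pET-22b(+) in E. coli BL21(DE3). Six replicate transformations were grown overnight at 37°C or 30°C on LB agar with or without 25 μg/mL kanamycin, plus 100 μg/mL carbenicillin, 50 μM IPTG and 0.2% rhamnose. Pooled colonies were amplicon-sequenced on an Illumina HiSeq 2500.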

Sequence | self-splicing fitness (ln) (30 °C) | self-splicing fitness (ln) (37 °C)
UACGAGCAAUAUUACGAGUC | -2.81 ± 0.38 | -3.01 ± 0.43
CAACAGCAAUAUUACGGUAA | -1.71 ± 0.089 | -1.61 ± 0.094
AUACAGCAAUAUUACGACUC | -0.976 ± 0.086 | 0.311 ± 0.11
UGUCAGCAAUAUUACGACUU | -1.14 ± 0.1 | 0.303 ± 0.16
GGUUAGCAAUAUUACGUUUA | -1.5 ± 0.096 | -0.992 ± 0.088
AGGUAGCAAUAUUACGCUGG | -3.816 ± 0.035 | -2.83 ± 0.046
GUGUAGCAAUAUUACGGCGU | -1.42 ± 0.11 | -1.04 ± 0.12
CCCCAGCAAUAUUACGGUCA | -2.71 ± 0.16 | -0.931 ± 0.13
AAUCAGCAAUAUUACGUUCU | 0.0868 ± 0.061 | 0.0857 ± 0.085
CCGUAGCAAUAUUACGGGAG | -3.35 ± 0.19 | -2.97 ± 0.18
GGGAAGCAAUAUUACGACUA | -0.9 ± 0.15 | 0.352 ± 0.17
CAUUAGCAAUAUUACGAUUA | -1.47 ± 0.085 | -0.981 ± 0.081
GAAGAGCAAUAUUACGAAGU | -3.98 ± 0.42 | -2.85 ± 0.3
CUGCAGCAAUAUUACGGCCG | -0.291 ± 0.12 | -0.672 ± 0.14
GUCAAGCAAUAUUACGCUCC | -1.87 ± 0.28 | -1.62 ± 0.29
GUACAGCAAUAUUACGAGGU | -4.68 ± 0.29 | -1.97 ± 0.16
UCUUAGCAAUAUUACGGUGA | -0.481 ± 0.1 | 0.15 ± 0.1
UGACAGCAAUAUUACGAUGG | -1.5 ± 0.084 | 0.221 ± 0.12
AGGAAGCAAUAUUACGUAGU | -2.73 ± 0.15 | -2.63 ± 0.21

Sequence | self-splicing fitness (ln) (30 °C) | self-splicing fitness (ln) (37 °C)
UACCAGCAAUAUUACGCGUA | -1.9 ± 0.074 | -1.67 ± 0.093
UACCAGCAAUAUUACGAGUU | -1.28 ± 0.073 | -0.876 ± 0.076
AGCCAGCAAUAUUACGGAGA | -2.57 ± 0.16 | -1.34 ± 0.15
CUAGAGCAAUAUUACGUGCC | -2.84 ± 0.24 | -1.41 ± 0.24
CUGAAGCAAUAUUACGGCGA | -3.53 ± 0.27 | –
UUGAAGCAAUAUUACGGUGA | -0.275 ± 0.08 | -0.469 ± 0.09
AAGUAGCAAUAUUACGUUGG | -2.96 ± 0.18 | -2.2 ± 0.23
UCCCAGCAAUAUUACGCAUG | -4.28 ± 0.22 | -2.41 ± 0.19
CAUUAGCAAUAUUACGGUAU | – | -0.876 ± 0.12
GAAAAGCAAUAUUACGGCGC | 0.706 ± 0.11 | 0.245 ± 0.18
CCUCAGCAAUAUUACGAGAG | -2.75 ± 0.13 | -1.47 ± 0.1
CCAGAGCAAUAUUACGUGAA | -3.7 ± 0.16 | -2.32 ± 0.18
UCGCAGCAAUAUUACGUUUA | -1.78 ± 0.12 | -1.11 ± 0.11
AGCUAGCAAUAUUACGAGUU | -2.58 ± 0.16 | -2.45 ± 0.22
CUCAAGCAAUAUUACGGGCC | -4.15 ± 0.35 | -2.78 ± 0.36
AAACAGCAAUAUUACGCCAU | -3.26 ± 0.17 | -2.42 ± 0.18
UAAAAGCAAUAUUACGACUC | -1.22 ± 0.12 | -0.668 ± 0.18
GUUCAGCAAUAUUACGUUAA | -1.02 ± 0.11 | -0.264 ± 0.12
CUAAAGCAAUAUUACGAGGG | -2.22 ± 0.094 | -2.22 ± 0.16
